Data from patent publication US20030109691A1.

Columns and labels:
complement iC3b [1] = target: complement iC3b (UniProt P01024); assay: SPR (BIAcore), iC3b on CM5 chip, A domain flowed; linear transformation, mean±SD, n=2
fibrinogen = fibrinogen (UniProt P02671); assay: SPR (BIAcore), fibrinogen on CM5 chip, A domain flowed; linear transformation, mean±SD, n=2
CD54 (ICAM-1) = CD54 (ICAM-1) (UniProt P05362); assay: SPR (BIAcore), CD54 on CM5 chip, A domain flowed; linear transformation, mean±SD, n=2
Chain of CD54 (ICAM-1) (P05362 28-480 limits assumed): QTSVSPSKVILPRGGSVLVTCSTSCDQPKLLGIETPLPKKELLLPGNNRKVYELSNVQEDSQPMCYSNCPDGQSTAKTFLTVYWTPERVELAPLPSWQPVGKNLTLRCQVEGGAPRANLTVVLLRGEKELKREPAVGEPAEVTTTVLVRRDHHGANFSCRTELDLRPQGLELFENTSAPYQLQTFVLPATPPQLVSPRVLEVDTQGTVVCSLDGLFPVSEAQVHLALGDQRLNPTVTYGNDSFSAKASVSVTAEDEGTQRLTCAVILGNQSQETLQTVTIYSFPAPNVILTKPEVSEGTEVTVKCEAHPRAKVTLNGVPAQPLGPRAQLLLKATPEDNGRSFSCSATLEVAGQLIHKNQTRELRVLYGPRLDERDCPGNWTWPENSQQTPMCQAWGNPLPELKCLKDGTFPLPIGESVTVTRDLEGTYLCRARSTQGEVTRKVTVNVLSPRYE

complement iC3b [2] = target: complement iC3b (UniProt P01024); assay: SPR (BIAcore), iC3b on CM5 chip, A domain flowed

Chain of fibrinogen (P02671 20-629 limits assumed, chain 1 of 3): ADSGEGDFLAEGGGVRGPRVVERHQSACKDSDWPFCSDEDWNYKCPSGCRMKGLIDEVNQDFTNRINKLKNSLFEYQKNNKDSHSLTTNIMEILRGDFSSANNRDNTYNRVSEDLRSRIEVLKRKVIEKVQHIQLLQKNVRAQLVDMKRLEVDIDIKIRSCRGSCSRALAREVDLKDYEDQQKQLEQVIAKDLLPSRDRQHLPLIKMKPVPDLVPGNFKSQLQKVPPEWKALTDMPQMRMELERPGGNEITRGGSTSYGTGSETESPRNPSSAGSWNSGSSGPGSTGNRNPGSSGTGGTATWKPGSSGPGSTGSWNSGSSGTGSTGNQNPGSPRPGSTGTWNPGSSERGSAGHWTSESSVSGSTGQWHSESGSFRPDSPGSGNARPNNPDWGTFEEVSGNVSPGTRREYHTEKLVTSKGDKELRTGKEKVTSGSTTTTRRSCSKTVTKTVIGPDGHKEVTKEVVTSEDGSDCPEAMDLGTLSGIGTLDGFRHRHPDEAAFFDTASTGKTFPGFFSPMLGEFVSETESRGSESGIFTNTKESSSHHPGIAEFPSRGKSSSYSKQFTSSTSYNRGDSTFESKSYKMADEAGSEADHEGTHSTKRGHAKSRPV
Chain of fibrinogen (P02675 31-491 limits assumed, chain 2 of 3, further chain): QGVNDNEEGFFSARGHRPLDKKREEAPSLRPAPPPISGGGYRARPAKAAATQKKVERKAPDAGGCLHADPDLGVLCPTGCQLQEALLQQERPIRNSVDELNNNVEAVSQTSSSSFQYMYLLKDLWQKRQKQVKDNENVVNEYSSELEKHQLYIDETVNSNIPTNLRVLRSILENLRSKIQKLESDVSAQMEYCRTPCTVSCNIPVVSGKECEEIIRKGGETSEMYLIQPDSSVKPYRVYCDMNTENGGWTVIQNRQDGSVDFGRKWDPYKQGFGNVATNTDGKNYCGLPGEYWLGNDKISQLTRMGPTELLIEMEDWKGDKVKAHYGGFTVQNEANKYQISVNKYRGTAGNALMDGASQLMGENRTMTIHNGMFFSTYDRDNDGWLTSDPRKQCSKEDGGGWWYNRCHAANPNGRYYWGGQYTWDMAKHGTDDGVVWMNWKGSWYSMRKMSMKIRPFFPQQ
Chain of fibrinogen (P02679 other isoform, or with tags, fused parts or gaps limits assumed, chain 3 of 3, further chain): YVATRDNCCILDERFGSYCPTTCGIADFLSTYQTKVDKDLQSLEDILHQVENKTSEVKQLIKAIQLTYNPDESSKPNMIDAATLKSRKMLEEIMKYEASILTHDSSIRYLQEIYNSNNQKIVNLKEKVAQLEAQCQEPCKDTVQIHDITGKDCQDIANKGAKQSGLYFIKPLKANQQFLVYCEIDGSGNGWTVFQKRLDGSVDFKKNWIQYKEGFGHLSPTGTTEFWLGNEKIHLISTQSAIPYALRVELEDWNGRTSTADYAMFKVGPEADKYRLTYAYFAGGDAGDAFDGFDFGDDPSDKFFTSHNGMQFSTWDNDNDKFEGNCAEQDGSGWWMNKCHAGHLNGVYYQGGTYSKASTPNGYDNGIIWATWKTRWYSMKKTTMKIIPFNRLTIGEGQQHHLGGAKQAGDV

Substance | Kd (complement iC3b [1]) | Kd (fibrinogen) | Kd (CD54 (ICAM-1)) | Kd (complement iC3b [2])
variant CD11b A domain consisting of amino acids E123 to K315 (11bA^123-315) (from UniProt P11215 139-331) (receptor) | 0.46 µM | 0.25 µM | 0.22 µM | –
variant CD11b A domain with an Ile to Gly change at residue 316 (11bA^I→G) (from UniProt P11215 139-337) (receptor) | – | – | – | 0.66 µM
